Data taken from patent publication US7144731B2, “SCF antibody compositions and methods of using the same” (Amgen Inc., priority 1989, dated 2006).

What was measured:
[1] = test system: bone marrow cells (CFU-S); test: pre-CFU-S assay; format: cell-based, mouse
Protocol: The in vitro survival and proliferation of primitive stem cells is critical to the success of gene transfer mediated by retroviral insertion or other known methods of gene transfer. The effect of SCF on the in vitro maintenance and/or proliferation of primitive progenitor cells has been studied in two systems which have been described previously [Bodine et al., Proc. Natl. Acad. Sci. 86 8897–8901, 1989]. The first is a pre-CFU-S assay wherein bone marrow cells are incubated for up to six days in suspension culture in the presence of growth factors. Aliquots are injected into lethally iradiated mice and the mice sacrificed at 12–14 days for quantitation of spleen focus formation. […] The second is a competitive repopulation assay which measures the effects of growth factors on recovery and biological activity of cells capable of sustaining long-term hematopoiesis. Cells from two congenic strains of mice differing for a hemoglobin marker are incubated in suspension independently, cells from one strain as a control and cells from a second under experimental conditions. After incubation, equal numbers of bone marrow cells from both cultures are mixed and injected into W/W^v recipients.

[2] = test system: murine mast cell line, MC/9; test: MC/9 ^3H-thymidine uptake assay; format: cell-based; settings: typical
Protocol: Another useful biological activity of both naturally-derived and recombinant rat SCF is the ability to cause the proliferation of the […] murine mast cell line, MC/9 (ATCC CRL 8306). MC/9 cells are cultured with a source of […] according to the ATCC CRL 8306 protocol. The medium used in the bioassay is RPMI 1640, 4% fetal bovine serum, 5×10^−5M 2-mercaptoethanol, and 1× glutamine-pen-strep. The MC/9 cells proliferate in response to SCF without the requirement for other growth factors. This proliferation is measured by first culturing the cells for 24 h without growth factors, plating 5000 cells in each well of 96 well plates with test sample for 48 h, pulsing for 4 h with 0.5 uCi ^3H-thymidine (specific activity 20 Ci/mmol), harvesting the solution onto glass fiber filters, and then measuring specifically-bound radioactivity. This assay was used in the purification of mammalian cell derived rat SCF after the ACA 54 gel filtration step, section C2 of this Example. Typically, SCF caused a 4–10 fold increase in CPM over background.

normal mouse bone marrow = test: CFU-GM assay on normal mouse bone marrow; format: cell-based; settings: 10 day period, no other factors
Protocol: The action of purified mammalian SCF, both naturally-derived and recombinant, free from interfering colony stimulating factors (CSFs), on normal undepleted mouse bone marrow has been ascertained. A CFU-GM assay [Broxmeyer et al. Exp. Hematol., 5, 87 (1977)] is used to evaluate the effect of SCF on normal marrow. Briefly, total bone marrow cells after lysis of red blood cells are plated in semi-solid agar cultures containing the test substance. After.10 days, the colonies containing clusters of >40 cells are scored. The agar cultures can be dried down onto glass slides and the morphology of the cells can be determined via specific histological stains.

[3] = test system: 5-FU treated mouse bone marrow cells; test: HPP-CFC assay; format: cell-based; settings: typical assay; plated with CSF-1 or IL-6
Excerpt: There are a variety of biological activities which can be attributed to the natural mammalian rat SCF as well as the recombinant rat SCF protein. One such activity is its effect on early hematopoietic cells. This activity can be measured in a High Proliferative Potential Colony Forming Cell (HPP-CFC) assay [Zsebo, et al., supra (1988)]. To investigate the effects of factors on early hematopoietic cells, the HPP-CFC assay system utilizes mouse bone marrow derived from animals 2 days after 5-fluorouracil (5-FU) treatment. […] The rat SCF is plated in the presence of CSF-1 or IL-6 in semi-solid agar cultures. The agar cultures contain McCoys complete medium (GIBCO), 20% fetal bovine serum, 0.3% agar, and 2×10^5 bone marrow cells/ml. The McCoys complete medium contains the following components: 1× McCoys medium supplemented with 0.1 mM pyruvate, 0.24× essential amino acids, 0.24× non-essential amino acids, 0.027% sodium bicarbonate, 0.24× vitamins, 0.72 mM glutamine, 25 μg/ml L-serine, and 12 μg/ml L-asparagine. The bone marrow cells are obtained from Balb/c mice injected i.v. with 150 mg/kg 5-FU. The femurs are harvested 2 days post 5-FU treatment of the mice and bone marrow is flushed out. The red blood cells are lysed with red blood cell lysing reagent (Becton Dickenson) prior to plating. Test substances are plated with the above mixture in 30 mm dishes. Fourteen days later the colonies (>1 mm in diameter) which contain thousands of cells are scored. This assay was used throughout the purification of natural mammalian cell-derived rat SCF.

B1: rat SCF: rat stem cell factor, natural (purified from BRL 3A conditioned medium) or recombinant; form not specified at the place (protein, UniProt P21581 26-190, looked up)
Soluble KIT ligand: QEICRNPVTDNVKDITKLVANLPNDYMITLNYVAGMDVLPSHCWLRDMVTHLSVSLTTLLDKFSNISEGLSNYSIIDKLGKIVDDLVACMEENAPKNVKESLKKPETRNFTPEEFFSIFNRSIDAFKDFMVASDTSDCVLSSTLGPEKDSRVSVTKPFMLPPVAA
[1]
  activity in the pre-CFU-S assay: very little activity
[2]
  increase in CPM over background: 4–10 fold
Normal mouse bone marrow
  colonies from 200,000 cells plated: over 100
[3]
  HPP-CFC per 200,000 cells plated: approximately 50
